Measurements taken from the RNAGym collection of RNA variant scans (doi:10.1073/pnas.2313332121).

B1: TPR t1 (parent)
chain: GACCAAUCUGCCCUCAGAGCUCGAGAACAUCUUCGGAUGCAGAGGAGGCAGGCUUCGGUGGCGCGAUAGCGCCAACGUCCUCAACCUCCAAUGCAUCCCACCACAUGAUGAUGCCUGAAGAGCCUUGGUUUUUUG

Variants of: B1
Assay: polymerase ribozyme fitness, log enrichment relative to wild type (log ratio); higher = more active; in vitro selection for triplet polymerase activity
Procedure, shortened: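 Fitness compares each genotype's enrichment to that of the wild type on a logarithmic scale, averaging replicates with inverse-variance weights. The logarithm is base 2. Enrichment came from Illumina sequencing of input and output libraries after one triplicate round of in vitro selection, which included frozen incubation at −7 °C, of PCR-built, transcribed mutant libraries of each subunit of a heterodimeric triplet polymerase ribozyme. Only genotypes with ≥10 input reads and ≥1 read per output were kept.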

| Variant | polymerase ribozyme fitness (log ratio) |
| --- | --- |
| GACCAAUCUGCCCUCGGAGCUCGAGAACAUCUUCGGAUGCAGAGGAGGCAGGCUUCGGUGGCGCGAUAGCGCCAACGUCCUCAACCUCCAAUGCAUCCCACCACAUGAUGAUGCCUGAAGAGCCUUGGGUUUUUG | -3.64 |
| GACCAAUCAGCCCUCAGAGCUCGAGAACAUCUUCGGAUGCAGAGGAGGCAGUCUUCGGUGGCGCGAUAGCGACAACGUCCUCAACCUUCAAUGCAUCCCACCACAUGAUGAUGCCUGAAGAGCAUUGGUUUUUUG | 1.2 |
| GACCAAUCUGCCCUCAGAGCUCGAGAAUAUCUUCGGAUGCAGAGGAGGCAGGCUUCGGUGGCGCGAUAGCGCCAACGUCCUCUACGUCCAAUGCAUCCCACCACAUGAUGAUGCCUGAAGAGGCUUGGUUUUUUG | -1.55 |
| GACCAAUCUGCCCUCAGAGCUUGAGAACAUCUUCGGAUGCAGAGGAGGCAGGCUUCGGUGGCGCGAUAGCGCCAGCGUCCUCAACCUCCAAUGCAUCCCACCACAUGAUGAUGCCUGAAGAGCCUUGGUUUUUUG | -3.55 |
| GACCAAUCUGCCCUCAGAGCUCGAGAAAAUCUUCGGAUGCAGAGGAGGCAGGCUUCGGUGGCGCGAUAGCGCCAACGUCCUCAAUCUCCAAUGCAUCCCACCACAUGAUGAUGCCUGAAGUGCCUUGGUUUUUUG | -3.69 |
| GACCAAUAUGCCCUCAGAGCUCGAGAACAUCUUCGGAUGCAGAGGAGGCAGGCUUCGGUGGCGCGAUAGCGCCCACGUCCUCAACCUCCAAUGCAUCCCACCACAUGAUGAUGCCUGAAUAGCCUUGGUUUUUUG | 2.1 |
| GACCAAUCUGUCCUCAGAGCUCGAGAACAUCUUCGGAUGCAGAGGAGGCAGGCUUCGGUGGCCCGAUAGCGCCAACGUCCUCAACCUCCAAUGCAUCCCACCACAUGAUGAUGCCUGAAGAGCCUUGGUUUUUUG | -1.64 |
| GACCAAUCUGCCCUCAGAGCUGGAGAACCUCUUCGGAUGCAGAGGAGGCAGGCUUCGGUGGCGCGAUAGCGCCAACGUCCUCAACCUCAAAUGCAUCCCACCACAUGAUGAUGCCUGAACAGCCUUGGUUUUUUG | -6.79 |
| GACCAAUCUGCCCUCAGAGCUCGAGUACAUCUUCGGAUGCAGAGGAGGCAGGGUUCGGUAGCGCGAUAGCGCCAACGUCUUCAACCUCCAAUGCAUCCCACCACAUGAUGAUGCCUGAAGAGCCUUGGUUUUUUG | -4.36 |
| GACCAAUCUGCCCUCAGAGCUCGAGAACAUCUUCGGAUGUAGAGGAGGCAGGCUUCGGUGGCGCGAUAGCGCCAACGUCCUCAACCUCCCAUGCAUCCCACCACAUGAUGAUGCCUGAAGAGCCUUGGUUUAUUG | -1.85 |
| GACCAAUCUGCCCUCAGAGCUCGAGAACAUCUUCGGAUGCAGAGGAGGCAGGCUUCGGUGGCGCGAUAGCGCCAACGUCCUCAACCUCCAAAGCAUCCCACCACAUGAUGAUACCUGAAGAGCCCUGGUUUUUUG | -3.27 |
| GACCAAUCUGCCCUCAGAGCUCGAGAACAUCUUCGGAUGCAGAGGCGGCAGGCUUCGGUGGCGCGAUAGCGCCAACGUCCUCAACCUCCAAUGCAUCCCACCACAUGAUGAUGCCUGAAGAGCCUUGCUUUUUUG | -3.42 |
| GACCAAUCUGCCCUCAGAGAUCGAGAACAUCUUCGGAUGCAGAGGAGGCAGGCUUCGGUGGCGCGAUAGCGCCAACGUCCUCAACCUCCAAUGCAUCCCACCACAUGAUGAUGCCUGAAGAGCCUUCGUUUUUUG | -2.94 |
| GACCAAUCUGCACUCAGAGCUCGAGAACAUCUUCGGAUGCAGAGGAGGCAGGCUUCGGUGGCGCGAUAGCGCCAACGUCCUCAACCUCCAAUGCAUCCCACCACAUGAUGAUGCCUGAAGAGCUUUGGUUUUUUG | 0.853 |
| GACCCAUCUGCCCUCAGAGCUCGAGAACAUCUUCGGAUGCAGAGGAGGCAGGCUUCGGUGGCGCGAUAGCGCCAACGUCCUCAACCUCCAAUGCAACCCACCACAUGAUGAUGCCUGAAGCGCCUUGGUUUUUUG | 0.399 |
| GACCAAUCUGCCCUCAGAGCUCGAGAACAUCUUCGGAUGCAGAGGAGCCAGGCUUCGGUGGCGCGAUAGCGCCAACGUUCUCAACCUCCAAUGCAUCCCACCACAUGAUGAUGCCUGAAGAGCCUUGGUUUUUUG | -1.34 |
| GACCAAUCUGCCCUCAGAGCUCGAGAACAUCUUCGGAUGCAGAGGAGGCAGGCUUCGGUGGCGCGAUAGCGCCAACGUCCUCAACCUCCGAUGCAUUCCACCACAUGAUGAUGCCUGAAGAGCCUUGGUUUUUUG | 0.255 |
| GACCAAGGUGCCCUCAGAGCUCGAGAACAUCUUCGGAUGCAGAAGAGGCAGGCUUCGGUGGCGCGAUAGCGCCAACGUCCUCAACCUCCAAUGCAUCCCACCACAUGAUGAUGCCUGAAAAGCAUUGGUUUUUUG | 1.06 |
| GACCAAUCUGCCCUCAGAGCUCGAGAACAUCUUCGGAUGCAGAGGAGGCAGGCUUCGGUGGCGCGAUAGCGCCAACGUCCUCAACCUACAAUGCAUCCCACCACAUGAUGAUGCCUGAAGAGGCUUGGUUUUUUG | 1.69 |
| GACCAAUCUGCCCUCAGAGCUCGAGAACAUCUUUGGAUGCAGAGGAGGCAGGCUUCGGUGGCGCGAUAGCGCCAACAUCCUCAACCUCCAAUGCAUCCCACCCCAUGAUGAUGCCUUAAGAGCCUUCGUAUUUUG | -7.38 |
| GACUAAUCUGCCCUCAGAGCUCGAGAACAUCUUCGGAUGCAGAGGAGGCAGGCUUAGGUGGCGCGAUAGCGCCAACGUCCUCAACUUCCAAUGCAUCCCACCACAUGAUGAUGCCUGAAGAGCCUUGGUUUUUUG | -1.22 |
